The values that follow come from paper PMC3871816, “The Arabidopsis adaptor protein AP-3µ interacts with the G-protein β subunit AGB1 and is involved in abscisic acid regulation of germination and post-germination development” (Journal of Experimental Botany, 2013).

This test addresses T1, GST-fused AP-3µ (Arabidopsis thaliana, UniProt F4I562 1-415).
T1 construct: AP-3µ of Arabidopsis thaliana; construction is in Supplementary Method S2, induction and purification in Supplementary Method S3; also called GST-AP-3µ; pGEX-5X-AP-3µ
T1 sequence (looked up): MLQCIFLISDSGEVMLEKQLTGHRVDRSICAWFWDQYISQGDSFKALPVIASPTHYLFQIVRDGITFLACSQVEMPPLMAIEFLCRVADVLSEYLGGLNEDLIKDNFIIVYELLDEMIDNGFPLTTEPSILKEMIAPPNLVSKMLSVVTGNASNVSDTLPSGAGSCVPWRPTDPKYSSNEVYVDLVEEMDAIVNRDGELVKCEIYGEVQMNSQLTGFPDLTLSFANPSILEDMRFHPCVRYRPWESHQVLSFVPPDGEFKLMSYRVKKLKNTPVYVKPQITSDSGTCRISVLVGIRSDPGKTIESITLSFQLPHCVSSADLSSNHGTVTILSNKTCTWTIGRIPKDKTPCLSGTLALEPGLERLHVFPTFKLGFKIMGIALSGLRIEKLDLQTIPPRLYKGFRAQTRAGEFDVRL
The experiment in a line: pull-down; GST-AP-3µ or GST-AP-3µ^DN bound to Glutathione Sepharose 4 Fast Flow, washed with PBS, incubated with purified His-AGB1 at room temperature for 60 min; eluted with 20 mM reduced glutathione; immunoblot with anti-GST and HisProbe-HRP. Conditions: both partners purified. (In general: Immunoblotting shows a protein as a band on a membrane.)

B1: Polyhistidine-tagged AGB1 (natural protein, Arabidopsis thaliana, UniProt P49177 1-377, looked up)
chain: MSVSELKERHAVATETVNNLRDQLRQRRLQLLDTDVARYSAAQGRTRVSFGATDLVCCRTLQGHTGKVYSLDWTPERNRIVSASQDGRLIVWNALTSQKTHAIKLPCAWVMTCAFSPNGQSVACGGLDSVCSIFSLSSTADKDGTVPVSRMLTGHRGYVSCCQYVPNEDAHLITSSGDQTCILWDVTTGLKTSVFGGEFQSGHTADVLSVSISGSNPNWFISGSCDSTARLWDTRAASRAVRTFHGHEGDVNTVKFFPDGYRFGTGSDDGTCRLYDIRTGHQLQVYQPHGDGENGPVTSIAFSVSGRLLFAGYASNNTCYVWDTLLGEVVLDLGLQQDSHRNRISCLGLSADGSALCTGSWDSNLKIWAFGGHRRVI
notes: AGB1, G-protein β subunit of Arabidopsis thaliana; His-AGG1 is named in the same sentence but in no result; also called His-AGB1; His-tagged AGB1; source: E. coli, purified
With B1, the binding result is on record as “binds”.
